The text below walks through data of US12186353B2, “Method of reducing neuronal microtubule binding protein Tau (Tau) levels” (ADAERATA, LIMITED PARTNERSHIP, priority 2018, dated 2025).

For one test, the system named is Tau. Put plainly: Dot blot of monomeric and oligomeric Tau in the media of HEK293T cells expressing Tau. In kind it is cell-based. The note with it: media collected 24 h after doxycycline, vs GFP control. The protocol: FIGS. 9A-B: Numb72 stimulates secretion of the monomeric form of Tau in the extracellular media in cell lines, but not oligomeric (toxic) Tau. FIG. 9A. Dot blot of monomeric Tau levels (5A6) and oligomer of Tau (T22) in the media of HEK293T stable inducible cells line expressing Tau transfected with either GFP (Control) or Numb72. Tau expression was activated by adding Doxycycline 6 h after transfection and the media collected 24 h later for Dot-blot. FIG. 9B. Quantification of extracellular Tau levels; data are mean±SEM, n.s non-significant; *p<0.05. Student's t test, n=6 for Tau5A6 and n=4 for T22.
The impact of Numb on the secretion of monomeric and oligomeric Tau was assessed. A cell line (HEK293T) expressing Tau was transfected with either GFP (Control) or Numb72, and the monomeric Tau (5A6) and oligomeric Tau (T22) levels were assessed in the cell media by dot blot assay on the collected culture medium.

Another test relates to Tau::GFP fusion protein. Description: Intracellular Tau::GFP fluorescence in stable inducible HEK293 cells with proteasome or lysosome inhibitor. Type of test: cell-based. The following applies: stable inducible HEK293, Numb72 vs control empty vector, fixed 48 h after doxycycline. The procedure: FIG. 7A Stable inducible cell line HEK293 that express a Tau::GFP fusion protein was transfected with Control Myc or Numb72::Myc, and the Tau::GFP expression was activated by adding Doxycycline 6 h later. The cells were fixed 48 h later and stained for Myc. FIG. 7B. The mean intensity (±SEM) of intracellular Tau::GFP fluorescence in transfected cells was quantified. Cells were treated with vehicle, MG132 (a proteasome inhibitor, 25 uM) or Chloroquine (a lysosome inhibitor, 25 uM) for 4 h before fixation and Myc staining. Quantification represents mean intensity +/− SEM, *p≤0.01; Anova 1-way test.
The potential role of the proteasome and of the lysosome on the ability of Numb to reduce Tau levels was assessed. A stable inducible cell line (HEK293) expressing a Tau::GFP fusion protein was transfected with
Numb72 or a control empty vector. The intracellular Tau::GFP levels was compared when the cells were treated with a proteasome inhibitor (MG132), a lysosome inhibitor (Chloroquine) or a control (vehicle). […] (FIGS. 7A-B).

Test [1] has as its system primary RGC neuron cultures. Description: Axonal blebs, neurite length and branching in transfected primary RGC neuron cultures of AD and tauopathy mice. Type of test: cell-based, mouse. The following applies: for number of axonal blebs: plasmid transfection, two weeks later, vs GFP. The protocol:
FIGS. 10A-H: Numb72 reduces blebbing in AD mouse model RGCs. FIG. 10A. Primary retinal cultures were performed at P8 and cells were transfected using an Amaxa™ electroporator and analysed 14 days later. Cells GFP and NF165 positive were analysed in B6129J mouse line (Control) and triple transgenic mice (3×TGAD) expressing three mutations associated with familial Alzheimer's disease (APP Swedish, MAPT P301L, and PSEN1 M146V) after transfection of GFP or Numb-72 IRES::GFP. […] FIGS. 10B-D. Quantification of relative number of axonal blebs (FIG. 10B); axon (neurites) length (FIG. 10C) and branching number (FIG. 10D) in Control (B6129J) and 3×TGAD RGC axons was performed. Control numbers were normalized to 1. Error bars represent SEM, ** p≤0.001; n.s. non-significant; Anova 2 way for blebs and Student's t test for length and branching. FIG. 10E Primary retinal culture was performed at P8 and cells were transfected using an Amaxa™ electroporator and analysed 14 days later. Cells GFP and NF165 positive were analysed in C57b6 mouse line (Control) and P301S Tau mutant (TauP301S) (model of tauopathy) after transfection of GFP or Numb-72 IRES::GFP. […] FIGS. 10F-H. Quantification of relative number of axonal blebs (FIG. 10F); axon (neurites) length (FIG. 10G) and branching number (FIG. 7H) in Control (C57b6) (Control, FIGS. 10F-H) and TauP301S (FIGS. 10F-H) RGC axons was performed. Control numbers were normalized to 1. Error bars represent SEM, * p≤0.05; n.s. non-significant Anova 2 way for blebs and Student's t test for length and branching.
Retinal tissues were isolated from eyeballs of postnatal day 7 (P7) mice, cut in small pieces and incubated in PBS containing 5 mg/ml of papain, 0.24 mg/ml of L-cysteine, 0.5 mmol/l of EDTA, and 10 U/ml of DNase I for 2×3 min. The reaction was stopped by adding Lo-Ovo solution in PBS, and 10 U/ml of DNase I. The retinal cells were mechanically dissociated by gentle pipetting and collected as a suspension. Procedures were conducted at room temperature in a laminar flow hood. After centrifugation at 1000 rpm for 11 min, cells were resuspended in RGCs media and plate on glass coverslips at 50′000 cells/coverslips on a 24 wells plate and incubated at 37° C.; 8% CO2 for 2 weeks, half media was changed every 3 days. […]
To determine the neuroprotective effects of Numb-72, the inventors prepared primary RGC neuron cultures from control mice, triple transgenic mice (3×TGAD) expressing three mutations associated with familial Alzheimer's disease (APP Swedish, MAPT P301L, and PSEN1 M146V), or a P301S Tau mutant (model of tauopathy), and then expressed GFP or Numb-72 in these neurons by plasmid transfection. Two weeks later, the length of neurites, the number of branches, and the number of axonal blebs were counted.

[2] abbreviates: control, 3xTGAD and P301S RGC neurons, two weeks after transfection.

B1: Numb-72: 72 kDa Numb isoform with long PTB domain and long PRR; human isoform 1 (SEQ ID NO: 1); expressed by transfection (protein)
chain: MNKLRQSFRRKKDVYVPEASRPHQWQTDEEGVRTGKCSFPVKYLGHVEVDESRGMHICEDAVKRLKAERKFFKGFFGKTGKKAVKAVLWVSADGLRVVDEKTKDLIVDQTIEKVSFCAPDRNFDRAFSYICRDGTTRRWICHCFMAVKDTGERLSHAVGCAFAACLERKQKREKECGVTATFDASRTTFTREGSFRVTTATEQAEREEIMKQMQDAKKAETDKIVVGSSVAPGNTAPSPSSPTSPTSDATTSLEMNNPHAIPRRHAPIEQLARQGSFRGFPALSQKMSPFKRQLSLRINELPSTMQRKTDFPIKNAVPEVEGEAESISSLCSQITNAFSTPEDPFSSAPMTKPVTVVAPQSPTFQANGTDSAFHVLAKPAHTALAPVAMPVRETNPWAHAPDAANKEIAATCSGTEWGQSSGAASPGLFQAGHRRTPSEADRWLEEVSKSVRAQQPQASAAPLQPVLQPPPPTAISQPASPFQGNAFLTSQPVPVGVVPALQPAFVPAQSYPVANGMPYPAPNVPVVGITPSQMVANVFGTAGHPQAAHPHQSPSLVRQQTFPHYEASSATTSPFFKPPAQHLNGSAAFNGVDDGRLASADRHTEVPTGTCPVDPFEAQWAALENKSKQRTNPSPTNPFSSDLQKTFEIEL
modifications: homo sapiens
notes: 72 kDa Numb isoform with long PTB domain and long PRR; expressed by transfection
Consider B1, for which, in the test with Tau, the “secretion of monomeric Tau (5A6) in the cell media” value was “stimulates the secretion of monomeric Tau” and the “secretion of oligomeric Tau (T22) in the cell media” value is “not of toxic (oligomeric) Tau”. The “intracellular Tau::GFP levels” value in the test on Tau::GFP fusion protein is “induced a decrease of Tau::GFP levels”. For the same molecule, the “number of axonal blebs” value in test [1] (3xTGAD RGC neurons) is reported as “reduced back to control levels”. The “number of axonal blebs” value in test [1] (P301S Tau mutant RGC neurons) is “reduced back to control levels”. For the same molecule, in test [1] (setting [2]), the neurite length result is given as “not changed in any condition” and the number of branches result is recorded as “not changed in any condition”.
